Measurements taken from the supplement of paper PMC11246515.
± gives the standard deviation of the averaged measurements.

Test: total protein half-life in vivo (active degradation + dilution); higher = more stable protein
[1] = E. coli NCM3722 delta-clpP, growth: N-lim chemostat, doubling time 6 h
[2] = E. coli NCM3722 delta-hslV, growth: N-lim chemostat, doubling time 6 h
[3] = E. coli NCM3722 delta-lon, growth: N-lim chemostat, doubling time 6 h
[4] = E. coli NCM3722 delta-smpB, growth: N-lim chemostat, doubling time 6 h
[5] = wild type E. coli NCM3722, growth: C-lim chemostat, doubling time 6 h
[6] = wild type E. coli NCM3722, growth: C-lim chemostat, doubling time 12 h
[7] = wild type E. coli NCM3722, growth: N-lim chemostat, doubling time 6 h
[8] = wild type E. coli NCM3722, growth: N-lim chemostat, doubling time 12 h
[9] = wild type E. coli NCM3722, growth: P-lim chemostat, doubling time 6 h
[10] = wild type E. coli NCM3722, growth: P-lim chemostat, doubling time 12 h
[11] = E. coli NCM3722 delta-clpP delta-lon delta-hslV, growth: N-lim chemostat, doubling time 6 h
[12] = wild type E. coli NCM3722, growth: C-lim chemostat, doubling time 3 h

| Substance | total protein half-life in vivo [1] [h] | total protein half-life in vivo [2] [h] | total protein half-life in vivo [3] [h] | total protein half-life in vivo [4] [h] | total protein half-life in vivo [5] [h] | total protein half-life in vivo [6] [h] | total protein half-life in vivo [7] [h] | total protein half-life in vivo [8] [h] | total protein half-life in vivo [9] [h] | total protein half-life in vivo [10] [h] | total protein half-life in vivo [11] [h] | total protein half-life in vivo [12] [h] |
| --- | --- | --- | --- | --- | --- | --- | --- | --- | --- | --- | --- | --- |
| P0ABD3 | 5.98 ± 0.58 | 6.83 ± 1.2 | 6.67 ± 0.28 | 6.17 ± 0.69 | 6.73 ± 1.5 | 11.4 ± 1.6 | 5.57 ± 0.29 | 13.5 ± 2.1 | 5.92 ± 0.82 | 13.2 ± 0.8 | – | – |
| MAENQSTVENAKEKLDRWLKDGITTPGGKLPSERELGELLGIKRMTLRQALLNLEAESKIFRKDRKGWFVTQPRFNYSPELSASFQRAAIEQGREPSWGFTEKNRTSDIPETLAPLIAVTPSTELYRITGWGALEGHKVFYHETYINPEVAPGFIEQLENHSFSAVWEKCYQKETVVKKLIFKPVRMPGDISKYLGGSAGMPAILIEKHRADQQGNIVQIDIEYWRFEAVDLIINL [P0ACM9] | 5.99 ± 0.32 | 5.13 ± 0.17 | – | 4.95 | – | 13.2 ± 3.2 | 5.84 ± 0.19 | 9.06 ± 1 | 5.01 ± 1.8 | 9.28 | 6.16 ± 0.15 | – |
| MQSWYLLYCKRGQLQRAQEHLERQAVNCLAPMITLEKIVRGKRTAVSEPLFPNYLFVEFDPEVIHTTTINATRGVSHFVRFGASPAIVPSAVIHQLSVYKPKDIVDPATPYPGDKVIITEGAFEGFQAIFTEPDGEARSMLLLNLINKEIKHSVKNTEFRKL [P0AFW0] | 3.41 ± 0.17 | 3.23 | 3.931 ± 0.015 | 2.52 ± 0.22 | 5.24 ± 1.7 | 6.64 ± 1.1 | 3.18 | 5.43 ± 1.4 | 4.35 ± 0.79 | 7.71 | 4.25 ± 0.76 | 3.08 ± 0.73 |
| MVLMIVSGRSGSGKSVALRALEDMGFYCVDNLPVVLLPDLARTLADREISAAVSIDVRNMPESPEIFEQAMSNLPDAFSPQLLFLDADRNTLIRRYSDTRRLHPLSSKNLSLESAIDKESDLLEPLRSRADLIVDTSEMSVHELAEMLRTRLLGKRERELTMVFESFGFKHGIPIDADYVFDVRFLPNPHWDPKLRPMTGLDKPVAAFLDRHTEVHNFIYQTRSYLELWLPMLETNNRSYLTVAIGCTGGKHRSVYIAEQLADYFRSRGKNVQSRHRTLEKRKP [P0A894] | 4.58 ± 0.2 | 4.92 ± 0.47 | 5.04 ± 0.64 | 4.453 ± 0.016 | 6.62 ± 1.3 | 11.5 ± 0.81 | 4.48 ± 0.31 | 7.88 ± 1.8 | 5.95 ± 0.11 | 12.1 ± 0.55 | 5.6 ± 1.1 | 3.02 ± 0.095 |
| MCGIVGIAGVMPVNQSIYDALTVLQHRGQDAAGIITIDANNCFRLRKANGLVSDVFEARHMQRLQGNMGIGHVRYPTAGSSSASEAQPFYVNSPYGITLAHNGNLTNAHELRKKLFEEKRRHINTTSDSEILLNIFASELDNFRHYPLEADNIFAAIAATNRLIRGAYACVAMIIGHGMVAFRDPNGIRPLVLGKRDIDENRTEYMVASESVALDTLGFDFLRDVAPGEAIYITEEGQLFTRQCADNPVSNPCLFEYVYFARPDSFIDKISVYSARVNMGTKLGEKIAREWEDLDIDVVIPIPETSCDIALEIARILGKPYRQGFVKNRYVGRTFIMPGQQLRRKSVRRKLNANRAEFRDKNVLLVDDSIVRGTTSEQIIEMAREAGAKKVYLASAAPEIRFPNVYGIDMPSATELIAHGREVDEIRQIIGADGLIFQDLNDLIDAVRAENPDIQQFECSVFNGVYVTKDVDQGYLDFLDTLRNDDAKAVQRQNEVENLEMHNEG [P0AG16] | 4.19 ± 0.24 | 2.31 ± 0.34 | 2.37 ± 0.23 | 2.13 ± 0.17 | 4.01 ± 0.4 | 5.59 ± 0.33 | 2.25 ± 0.18 | 2.8937 ± 0.00088 | 3.6 ± 0.23 | 6.17 ± 0.076 | 5.35 ± 1.5 | 2.301 ± 0.0058 |
| MQDSILTTVVKDIDGEVTTLEKFAGNVLLIVNVASKCGLTPQYEQLENIQKAWVDRGFMVLGFPCNQFLEQEPGSDEEIKTYCTTTWGVTFPMFSKIEVNGEGRHPLYQKLIAAAPTAVAPEESGFYARMVSKGRAPLYPDDILWNFEKFLVGRDGKVIQRFSPDMTPEDPIVMESIKLALAK | 4.68 ± 0.55 | 4.23 ± 0.055 | 4.73 ± 0.43 | 4.24 ± 0.047 | 4.93 ± 0.1 | 7.87 ± 4.7 | 3.99 ± 0.07 | 6.05 ± 0.29 | 4.87 ± 0.1 | 11.1 ± 0.68 | 5.18 ± 1.1 | 2.82 ± 0.28 |
| MKTIHDIRRSNARKLRDGVGGNSSFATMIDREPTQTSRFMGDGATKNIGDSMARHIEKCFDLPVGWLDQEHQTTNITKKPDVSITNKQITLVPVISWVQAGAWKEVGYSEVDLSTAETYPCPVPCGEMTYILRVIGDSMIDEYRPGDMIFVDPEVPACHGDDVIALMHDTGETTFKRLIEDGTQRYLKALNPNWPEPYIKINGNCSIIGTVIFSGKPRRYKIKA | 5.02 ± 0.3 | 4.84 ± 0.77 | 4.886 ± 0.017 | 5.12 ± 0.24 | 6.8 ± 0.23 | 9.86 ± 0.61 | 5.26 ± 0.76 | 7.94 ± 0.96 | 4.81 ± 0.62 | 12.7 ± 2 | 5.24 ± 0.42 | – |
| MQKAQRIIKTYRRNRMIVCTICALVTLASTLSVRFISQRNLNQQRVVQFANHAVEELDKVLLPLQAGSEVLLPLIGLPCSVAHLPLRKQAAKLQTVRSIGLVQDGTLYCSSIFGYRNVPVVDILAELPAPQPLLRLTIDRALIKGSPVLIQWTPAAGSSNAGVMEMINIDLLTAMLLEPQLPQISSASLTVDKRHLLYGNGLVDSLPQPEDNENYQVSSQRFPFTINVNGPGATALAWHYLPTQLPLAVLLSLLVGYIAWLATAYRMSFSREINLGLAQHEFELFCQPLLNARSQQCIGVEILLRWNNPRQGWISPDVFIPIAEEHHLIVPLTRYVMAETIRQRHVFPMSSQFHVGINVAPSHFRRGVLIKDLNQYWFSAHPIQQLILEITERDALLDVDYRIARELHRKNVKLAIDDFGTGNSSFSWLETLRPDVLKIDKSFTAAIGSDAVNSTVTDIIIALGQRLNIELVAEGVETQEQAKYLRRHGVHILQGYLYAQPMPLRDFPKWLAGSQPPPARHNGHITPIMPLR | 2.57 | – | – | – | – | – | – | – | – | – | 4.94 | – |
